Experimental data reported in US20050014242.

Key:
[1] = tested on: PFEK2-protease F-6×HIS (purified zymogen, not digested with EK)
[2] = tested on: CFEK2-prostasin-6×HIS (purified zymogen, not digested with EK)
[3] = tested on: PFEK2-prostasin-6×HIS (purified zymogen, not digested with EK)
[4] = tested on: PFEK1-protease O-6×HIS (purified zymogen, not digested with EK)
[5] = tested on: PFEK1-neuropsin-6×HIS (purified zymogen, not digested with EK)
[6] = tested on: PFEK1-protease MH2-6×HIS (purified zymogen, not digested with EK)
Chain of PFEK1-protease MH2-6×HIS (purified zymogen, not digested with EK) (chain, as listed by the source): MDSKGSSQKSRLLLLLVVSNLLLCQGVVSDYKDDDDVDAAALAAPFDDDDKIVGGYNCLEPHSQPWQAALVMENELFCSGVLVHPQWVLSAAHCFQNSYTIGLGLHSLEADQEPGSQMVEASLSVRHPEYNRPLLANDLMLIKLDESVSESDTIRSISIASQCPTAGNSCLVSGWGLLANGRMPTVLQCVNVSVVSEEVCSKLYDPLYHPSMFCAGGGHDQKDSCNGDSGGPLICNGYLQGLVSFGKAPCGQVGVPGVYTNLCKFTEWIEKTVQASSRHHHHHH

Chain of PFEK2-protease F-6×HIS (purified zymogen, not digested with EK) (chain, as listed by the source): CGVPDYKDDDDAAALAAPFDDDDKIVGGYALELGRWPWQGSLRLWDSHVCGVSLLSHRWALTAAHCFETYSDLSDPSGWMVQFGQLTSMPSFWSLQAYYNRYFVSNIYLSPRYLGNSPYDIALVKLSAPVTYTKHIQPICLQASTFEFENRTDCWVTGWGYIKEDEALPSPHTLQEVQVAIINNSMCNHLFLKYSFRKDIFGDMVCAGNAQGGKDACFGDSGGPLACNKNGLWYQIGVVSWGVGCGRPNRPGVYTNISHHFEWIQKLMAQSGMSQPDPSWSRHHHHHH

## enterokinase
[1]
  cleavage of the zymogen (SDS-PAGE and anti-FLAG Western blot): quantitative cleavage of the expressed and purified zymogen to generate the processed and activated protease
[2]
  cleavage of the zymogen (SDS-PAGE and anti-FLAG Western blot): quantitative cleavage of the expressed and purified zymogen to generate the processed and activated protease
[3]
  cleavage of the zymogen (SDS-PAGE and anti-FLAG Western blot): quantitative cleavage of the expressed and purified zymogen to generate the processed and activated protease
[4]
  cleavage of the zymogen (SDS-PAGE and anti-FLAG Western blot): quantitative cleavage of the expressed and purified zymogen to generate the processed and activated protease
[5]
  cleavage of the zymogen (SDS-PAGE and anti-FLAG Western blot): quantitative cleavage of the expressed and purified zymogen to generate the processed and activated protease
[6]
  cleavage of the zymogen (SDS-PAGE and anti-FLAG Western blot): quantitative cleavage of the expressed and purified zymogen to generate the processed and activated protease
